Measurements published in the supplement of paper PMC10567573.

B1: MLL5 (parent)
chain: DCMGIDRQHIPDTYLCERCQPRNL
B2: MNAT1 (parent)
chain: SLREYNDFLEEVEEIVFNLTNNVD

Variants of: B1
Test: protein stability index of a GFP-peptide fusion (GPS, HEK-293T) (PSI 1-6); higher = more stable
Details: c terminus: a fixed tail appended
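Further: lentivirally expressed fusions sorted by FACS into six bins by GFP to DsRed ratio, PSI derived from sequencing read proportions per bin multiplied by bin number.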

Question: For M3T, which protein stability index is on record?
Answer: 2.47

Question: For M3I, which protein stability index is on record?
Answer: 2.77

Question: For M3Y, which protein stability index is on record?
Answer: 3.03

Question: For M3E, which protein stability index is on record?
Answer: 4.56

Question: Which protein stability index does the source give for M3V here?
Answer: 2.9

Question: For M3N, which protein stability index is on record?
Answer: 2.88

Question: For M3G, which protein stability index is on record?
Answer: 2.94

Question: With M3L as the variant, how does the protein stability index read?
Answer: 2.89

Question: With M3P as the variant, how does the protein stability index read?
Answer: 3.32

Question: For M3Q, which protein stability index is on record?
Answer: 2.48

Question: With M3S as the variant, how does the protein stability index read?
Answer: 3.66

Question: For M3D, which protein stability index is on record?
Answer: 3.75

Question: For M3F, which protein stability index is on record?
Answer: 2.57

Question: Which protein stability index does the source give for M3W here?
Answer: 3.54

Question: Which protein stability index does the source give for M3K here?
Answer: 3.63

Question: With M3C as the variant, how does the protein stability index read?
Answer: 3.14

Question: Which protein stability index does the source give for M3A here?
Answer: 2.48

Question: Which protein stability index does the source give for M3H here?
Answer: 2.81

Question: For M3R, which protein stability index is on record?
Answer: 2.61

Question: For D1E, which protein stability index is on record?
Answer: 2.63

Question: Which protein stability index does the source give for D1L here?
Answer: 2.21

Question: For D1P, which protein stability index is on record?
Answer: 3.3

Question: With D1T as the variant, how does the protein stability index read?
Answer: 2.43

Question: Which protein stability index does the source give for D1I here?
Answer: 2.17

Question: For D1M, which protein stability index is on record?
Answer: 1.91

Question: Which protein stability index does the source give for D1S here?
Answer: 3.17

Question: For D1H, which protein stability index is on record?
Answer: 2.73

Question: Which protein stability index does the source give for D1V here?
Answer: 2.86

Question: Which protein stability index does the source give for D1C here?
Answer: 3.63

Question: Which protein stability index does the source give for D1F here?
Answer: 1.89

Question: With D1N as the variant, how does the protein stability index read?
Answer: 2.21

Question: Which protein stability index does the source give for D1W here?
Answer: 1.4

Question: With D1R as the variant, how does the protein stability index read?
Answer: 2.42

Question: Which protein stability index does the source give for D1Y here?
Answer: 1.95

Question: For D1Q, which protein stability index is on record?
Answer: 2.41

Question: For D1K, which protein stability index is on record?
Answer: 2.58

Question: Which protein stability index does the source give for D1A here?
Answer: 2.69

Question: With D6G as the variant, how does the protein stability index read?
Answer: 2.78

Question: With D6A as the variant, how does the protein stability index read?
Answer: 3.27

Question: For D6K, which protein stability index is on record?
Answer: 2.59

Question: For D6F, which protein stability index is on record?
Answer: 1.74

Question: With D6C as the variant, how does the protein stability index read?
Answer: 3.29

Question: Which protein stability index does the source give for D6I here?
Answer: 1.56

Question: For D6H, which protein stability index is on record?
Answer: 3.19

Question: Which protein stability index does the source give for D6E here?
Answer: 2.78

Question: With G4L as the variant, how does the protein stability index read?
Answer: 2.63

Question: Which protein stability index does the source give for G4Q here?
Answer: 2.88

Question: With G4M as the variant, how does the protein stability index read?
Answer: 2.88

Question: Which protein stability index does the source give for G4A here?
Answer: 2.23

Question: For G4D, which protein stability index is on record?
Answer: 3.11

Question: Which protein stability index does the source give for G4W here?
Answer: 1.78

Question: Which protein stability index does the source give for G4K here?
Answer: 3.19

Question: With G4V as the variant, how does the protein stability index read?
Answer: 2.38

Question: With G4P as the variant, how does the protein stability index read?
Answer: 2.55

Question: With G4N as the variant, how does the protein stability index read?
Answer: 2.19

Question: For G4H, which protein stability index is on record?
Answer: 3.98

Question: Which protein stability index does the source give for G4E here?
Answer: 3.23

Question: Which protein stability index does the source give for G4S here?
Answer: 3.45

Question: With G4Y as the variant, how does the protein stability index read?
Answer: 2.49

Question: With G4F as the variant, how does the protein stability index read?
Answer: 2.37

Question: For G4T, which protein stability index is on record?
Answer: 3.23

Question: For G4R, which protein stability index is on record?
Answer: 2.48

Question: Which protein stability index does the source give for G4C here?
Answer: 3.73

Question: Which protein stability index does the source give for G4I here?
Answer: 2.41

Question: With I5E as the variant, how does the protein stability index read?
Answer: 3.57

Question: With I5P as the variant, how does the protein stability index read?
Answer: 3.27

Question: With I5H as the variant, how does the protein stability index read?
Answer: 3.99

Question: With I5V as the variant, how does the protein stability index read?
Answer: 3.16

Question: Which protein stability index does the source give for I5Y here?
Answer: 2.61

Question: For I5F, which protein stability index is on record?
Answer: 2.85

Question: With I5R as the variant, how does the protein stability index read?
Answer: 3.37

Question: For I5W, which protein stability index is on record?
Answer: 2.88

Question: For I5N, which protein stability index is on record?
Answer: 3.67

Question: With I5K as the variant, how does the protein stability index read?
Answer: 3.48

Question: For I5A, which protein stability index is on record?
Answer: 3.7

Question: Which protein stability index does the source give for I5G here?
Answer: 3.5

Question: With I5C as the variant, how does the protein stability index read?
Answer: 3.73

Question: With I5T as the variant, how does the protein stability index read?
Answer: 3.69

Question: For I5Q, which protein stability index is on record?
Answer: 3.37

Question: With I5M as the variant, how does the protein stability index read?
Answer: 3.1

Question: For I5D, which protein stability index is on record?
Answer: 2.87

Question: For I5S, which protein stability index is on record?
Answer: 2.54

Question: With C2L as the variant, how does the protein stability index read?
Answer: 2.73

Question: Which protein stability index does the source give for C2K here?
Answer: 2.99

Question: Which protein stability index does the source give for C2F here?
Answer: 2.1

Question: Which protein stability index does the source give for C2G here?
Answer: 2.7

Question: Which protein stability index does the source give for C2T here?
Answer: 3.21

Question: With C2W as the variant, how does the protein stability index read?
Answer: 2.21

Question: Which protein stability index does the source give for C2M here?
Answer: 2.89

Question: Which protein stability index does the source give for C2S here?
Answer: 2.63

Question: Which protein stability index does the source give for C2D here?
Answer: 3.08

Question: With C2R as the variant, how does the protein stability index read?
Answer: 3.38

Question: With C2V as the variant, how does the protein stability index read?
Answer: 2.77

Question: For C2P, which protein stability index is on record?
Answer: 4.03

Question: With C2Q as the variant, how does the protein stability index read?
Answer: 3.48

Question: For C2E, which protein stability index is on record?
Answer: 3.79

Question: With C2N as the variant, how does the protein stability index read?
Answer: 3.41

Question: With C2H as the variant, how does the protein stability index read?
Answer: 3.36

Question: For C2I, which protein stability index is on record?
Answer: 2.57

Question: For C2A, which protein stability index is on record?
Answer: 3.09

Question: For C2Y, which protein stability index is on record?
Answer: 2.53

Variants of: B2
Test: as above
Details: c terminus: a fixed tail appended

Question: Which protein stability index does the source give for V23Q here?
Answer: 2.21

Question: Which protein stability index does the source give for V23T here?
Answer: 2.5

Question: With V23D as the variant, how does the protein stability index read?
Answer: 2.92

Question: With V23E as the variant, how does the protein stability index read?
Answer: 2.82

Question: For V23H, which protein stability index is on record?
Answer: 2.38

Question: Which protein stability index does the source give for V23C here?
Answer: 2.47

Question: With V23G as the variant, how does the protein stability index read?
Answer: 2.73

Question: For V23I, which protein stability index is on record?
Answer: 1.98

Question: Which protein stability index does the source give for V23M here?
Answer: 1.44

Question: Which protein stability index does the source give for V23L here?
Answer: 1.64

Question: With V23A as the variant, how does the protein stability index read?
Answer: 2.69

Question: For V23K, which protein stability index is on record?
Answer: 2.08

Question: With V23W as the variant, how does the protein stability index read?
Answer: 1.57

Question: For V23P, which protein stability index is on record?
Answer: 3.05

Question: With V23F as the variant, how does the protein stability index read?
Answer: 2.71

Question: For V23N, which protein stability index is on record?
Answer: 2.35

Question: With V23Y as the variant, how does the protein stability index read?
Answer: 1.8

Question: For V23R, which protein stability index is on record?
Answer: 2.18

Question: For V23S, which protein stability index is on record?
Answer: 3.05

Question: For D24H, which protein stability index is on record?
Answer: 1.88

Question: For D24V, which protein stability index is on record?
Answer: 1.65

Question: With D24T as the variant, how does the protein stability index read?
Answer: 1.82

Question: For D24L, which protein stability index is on record?
Answer: 1.82

Question: Which protein stability index does the source give for D24S here?
Answer: 2.07

Question: For D24Q, which protein stability index is on record?
Answer: 1.73

Question: Which protein stability index does the source give for D24C here?
Answer: 1.5

Question: For D24R, which protein stability index is on record?
Answer: 1.26

Question: For D24W, which protein stability index is on record?
Answer: 1.54

Question: Which protein stability index does the source give for D24E here?
Answer: 2.47

Question: Which protein stability index does the source give for D24G here?
Answer: 2.61

Question: With D24P as the variant, how does the protein stability index read?
Answer: 2

Question: For D24A, which protein stability index is on record?
Answer: 1.79

Question: For D24K, which protein stability index is on record?
Answer: 1.81

Question: With D24I as the variant, how does the protein stability index read?
Answer: 1.85

Question: For D24N, which protein stability index is on record?
Answer: 1.31

Question: With D24F as the variant, how does the protein stability index read?
Answer: 1.87

Question: Which protein stability index does the source give for D24Y here?
Answer: 1.9

Question: Which protein stability index does the source give for N22S here?
Answer: 1.78

Question: Which protein stability index does the source give for N22L here?
Answer: 1.16

Question: With N22Y as the variant, how does the protein stability index read?
Answer: 1.38

Question: For N22I, which protein stability index is on record?
Answer: 2.25

Question: For N22V, which protein stability index is on record?
Answer: 1.9

Question: For N22R, which protein stability index is on record?
Answer: 2.09

Question: For N22Q, which protein stability index is on record?
Answer: 1.84

Question: Which protein stability index does the source give for N22D here?
Answer: 1.98

Question: With N22P as the variant, how does the protein stability index read?
Answer: 2.25

Question: For N22H, which protein stability index is on record?
Answer: 2.15

Question: With N22K as the variant, how does the protein stability index read?
Answer: 2.64

Question: With N22T as the variant, how does the protein stability index read?
Answer: 2.06

Question: For N22G, which protein stability index is on record?
Answer: 2.96

Question: For N22F, which protein stability index is on record?
Answer: 2.47

Question: Which protein stability index does the source give for N22M here?
Answer: 1.44

Question: Which protein stability index does the source give for N22E here?
Answer: 2.38

Question: For N22W, which protein stability index is on record?
Answer: 2.97

Question: Which protein stability index does the source give for N22C here?
Answer: 1.66

Question: For N22A, which protein stability index is on record?
Answer: 2.69

Question: With N21L as the variant, how does the protein stability index read?
Answer: 1.81

Question: With N21Q as the variant, how does the protein stability index read?
Answer: 3.08

Question: For N21S, which protein stability index is on record?
Answer: 1.68

Question: With N21K as the variant, how does the protein stability index read?
Answer: 1.45

Question: With N21M as the variant, how does the protein stability index read?
Answer: 2.48

Question: With N21Y as the variant, how does the protein stability index read?
Answer: 2.4

Question: Which protein stability index does the source give for N21R here?
Answer: 1.95

Question: With N21T as the variant, how does the protein stability index read?
Answer: 2.42

Question: For N21I, which protein stability index is on record?
Answer: 1.73

Question: With N21P as the variant, how does the protein stability index read?
Answer: 2.19
